By Kd is commonly meant the free concentration of one partner at which half of the binding sites on the other are occupied at equilibrium, for simple one-to-one binding. Low values mean a tighter complex, high ones a looser complex.

Assay [1] concerns the target GST-exportin-1-His6/Ran-GTPγS complex, preformed (UniProt O14980 1-1071; P62826 1-216).
The target of assay [2] is His6-importin α2/GST-importin β1 heterodimer (mouse), pre-dimerized (mouse, UniProt P52293 1-529; P70168 1-876).

Sequence of GST-exportin-1-His6/Ran-GTPγS complex, preformed (O14980 whole entry, one chain of several): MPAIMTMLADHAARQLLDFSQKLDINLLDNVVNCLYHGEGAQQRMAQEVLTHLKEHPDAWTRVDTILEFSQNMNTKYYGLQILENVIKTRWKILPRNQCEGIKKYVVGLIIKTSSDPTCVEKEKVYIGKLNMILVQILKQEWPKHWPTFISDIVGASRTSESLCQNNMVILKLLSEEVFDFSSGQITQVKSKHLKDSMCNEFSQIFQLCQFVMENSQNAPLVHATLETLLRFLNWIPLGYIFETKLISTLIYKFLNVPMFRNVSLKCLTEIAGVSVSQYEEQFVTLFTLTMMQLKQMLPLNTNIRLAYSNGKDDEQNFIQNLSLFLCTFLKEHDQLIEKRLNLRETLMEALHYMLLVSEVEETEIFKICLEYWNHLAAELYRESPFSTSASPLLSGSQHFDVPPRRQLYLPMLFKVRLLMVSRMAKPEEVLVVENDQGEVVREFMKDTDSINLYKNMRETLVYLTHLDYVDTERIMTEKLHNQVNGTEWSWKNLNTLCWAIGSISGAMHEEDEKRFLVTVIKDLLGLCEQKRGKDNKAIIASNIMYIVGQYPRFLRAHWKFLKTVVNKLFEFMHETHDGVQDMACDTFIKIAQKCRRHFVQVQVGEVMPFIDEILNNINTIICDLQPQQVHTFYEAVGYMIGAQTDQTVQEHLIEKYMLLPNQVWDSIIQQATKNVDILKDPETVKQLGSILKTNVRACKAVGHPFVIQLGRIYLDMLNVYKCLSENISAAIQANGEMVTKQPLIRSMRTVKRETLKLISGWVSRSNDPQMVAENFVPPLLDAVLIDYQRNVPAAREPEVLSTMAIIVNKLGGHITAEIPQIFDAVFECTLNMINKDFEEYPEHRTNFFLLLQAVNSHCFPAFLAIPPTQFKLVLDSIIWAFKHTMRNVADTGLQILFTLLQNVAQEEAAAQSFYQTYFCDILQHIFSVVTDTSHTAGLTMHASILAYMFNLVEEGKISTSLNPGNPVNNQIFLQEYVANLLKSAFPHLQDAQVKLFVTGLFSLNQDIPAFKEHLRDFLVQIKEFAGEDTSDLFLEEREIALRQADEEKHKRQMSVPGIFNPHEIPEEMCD

B1: Biotinylated Hendra virus V protein (natural protein)
chain: MDKLDLVNDGLDIIDFIQKNQKEIQKTYGRSSIQQPSTKDRTRAWEDFLQSTSGEHEQAEGGMPKNDGGTEGRNVEDLSSVTSSDGTIGQRVSNTRAWAEDPDDIQLDPMVTDVVYHDHGGECTGHGPSSSPERGWSYHMSGTHDGNVRAVPDTKVLPNAPKTTVPEEVREIDLIGLEDKFASAGLNPAAVPFVPKNQSTPTEEPPVIPEYYYGSGRRGDLSKSPPRGNVNLDSIKIYTSDDEDENQLEYEDEFAKSSSEVVIDTTPEDNDSINQEEVVGDPSDQGLEHPFPLGKFPEKEETPDVRRKDSLMQDSCKRGGVPKRLPMLSEEFECSGSDDPIIQELEREGSHPGGSLRLREPPQSSGNSRNQPDRQLKTGDAASPGGVQRPGTPMPKSRIMPIKKGHRREVSICWDGRRAWVEEWCNPVCSRITPQPRKQECYCGECPTECSQCCHEE
For the molecule B1, the values for the Kd in assay [1] and in assay [2] were 9.2 nM and 14.9 nM, respectively.
